One molecule from paper PMC5925078 (2018) can be followed below.

The target of experiment [1] is T1, TNFR2 variant in which the intracellular binding site for TRAF2 has been substituted by YFP (UniProt P20333 23-461).
T1 chain: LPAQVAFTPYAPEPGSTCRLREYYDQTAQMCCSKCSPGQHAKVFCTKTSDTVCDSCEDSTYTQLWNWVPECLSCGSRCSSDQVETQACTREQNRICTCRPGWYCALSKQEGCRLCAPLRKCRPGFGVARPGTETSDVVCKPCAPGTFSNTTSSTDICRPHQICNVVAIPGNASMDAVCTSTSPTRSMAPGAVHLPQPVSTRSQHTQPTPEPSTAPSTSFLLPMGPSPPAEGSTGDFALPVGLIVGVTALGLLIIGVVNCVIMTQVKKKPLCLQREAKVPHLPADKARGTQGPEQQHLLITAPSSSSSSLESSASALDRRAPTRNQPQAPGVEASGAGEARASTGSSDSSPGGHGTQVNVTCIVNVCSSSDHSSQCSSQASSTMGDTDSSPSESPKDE
Description: cells, second transfection empty vector.

Experiment [2] deals with T1, TNFR2 variant in which the …. Description: cells co-expressing PGRN.

B1: GpL-Flag-TNC-TNF (ligand)
chain: ACGCAAAPDIKDLLSRLEELEGLVSSLREQSDKPVAHVVANPQAEGQLQWLNRRANALLANGVELRDNQLVVPSEGLYLIYSQVLFKGQGCPSTHVLLTHTISRIAVSYQTKVNLLSAIKSPCQRETPEGAEAKPWYEPIYLGGVFQLEKGDRLSAEINRPDYLDFAESGQVYFGIIAL
On to B1, for which the Kd was found to be 0.036 nM in experiment [1] and 0.049 nM in experiment [2].
